Laboratory results taken from publication PMC10786891, “Massively parallel profiling of RNA-targeting CRISPR-Cas13d”.
Where a chain is given by its changes, count along the chain named. In names and notes the source's numbering stands.

B1: target 1 insG 3' of 22,insU 3' of 21 (mixed)
RNA 1: CACCCGUGCAAAAAUGCAGGGGUCUAAAACUGAGCGGAUAACCUCUCUAUGG
RNA 2: GGGAAUGGAUCCACAUCUACGAAUUCGUACGCUAUAGAGAGGUUAUCCGCUCACCGAGAUCGGAAGAGCACACGU
B2: target 1 insC 3' of 20,insU 3' of 17 (mixed)
RNA 1: B1 RNA 1
RNA 2: B1 RNA 2 with G31C, C32A, U33C, A34U, U35A, A36G, G37U
B3: target 1 complement block 3-13 (mixed)
RNA 1: B1 RNA 1
RNA 2: GGGAAUGGAUCCACAUCUACGAAUUCGUACCAUAGAGACCAAUAGGCGACACCGAGAUCGGAAGAGCACACGU
B4: target 1 C4A,G5C (mixed)
RNA 1: B1 RNA 1
RNA 2: GGGAAUGGAUCCACAUCUACGAAUUCGUACCAUAGAGAGGUUAUCCCAUCACCGAGAUCGGAAGAGCACACGU
B5: target 1 C6U,A14C (mixed)
RNA 1: B1 RNA 1
RNA 2: B4 RNA 2 with A38C, C46U, C47G, A48C
B6: target 1 insU 3' of 20 (mixed)
RNA 1: B1 RNA 1
RNA 2: GGGAAUGGAUCCACAUCUACGAAUUCGUACCAUUAGAGAGGUUAUCCGCUCACCGAGAUCGGAAGAGCACACGU
B7: target 1 insA 3' of 10,insC 3' of 9 (mixed)
RNA 1: B1 RNA 1
RNA 2: B1 RNA 2 with G31C, C32A, U35G, A40G, G41U, G42U, U43A, U44A, A45C
B8: target 1 insC 3' of 12,insC 3' of 3 (mixed)
RNA 1: B1 RNA 1
RNA 2: GGGAAUGGAUCCACAUCUACGAAUUCGUACCAUAGAGAGGCUUAUCCGCUCCACCGAGAUCGGAAGAGCACACGU
B9: target 1 insG 3' of 14,insA 3' of 5 (mixed)
RNA 1: B1 RNA 1
RNA 2: B8 RNA 2 with C41G, C49A, U50C, C51U
B10: target 1 insA 3' of 17,insG 3' of 11 (mixed)
RNA 1: B1 RNA 1
RNA 2: B1 RNA 2 with G31C, C32A, U35G, G37A, A38G, G39A, A40G, G42U, U43G
B11: target 1 A9G,U11C (mixed)
RNA 1: B1 RNA 1
RNA 2: B4 RNA 2 with U41C, A43G, C47G, A48C
B12: target 1 insU 3' of 17,insA 3' of 8 (mixed)
RNA 1: B1 RNA 1
RNA 2: GGGAAUGGAUCCACAUCUACGAAUUCGUACCAUAGUAGAGGUUAUACCGCUCACCGAGAUCGGAAGAGCACACGU
B13: target 1 insA 3' of 13,insA 3' of 10 (mixed)
RNA 1: B1 RNA 1
RNA 2: B1 RNA 2 with G31C, C32A, U35G, G42U, U44A
B14: target 1 insU 3' of 14 (mixed)
RNA 1: B1 RNA 1
RNA 2: B6 RNA 2 with U34A, A35G, G36A, A37G, G38A, A39U
B15: target 1 G13U,A14C (mixed)
RNA 1: B1 RNA 1
RNA 2: B4 RNA 2 with A38C, G39U, C47G, A48C
B16: target 1 del3,del5 (mixed)
RNA 1: B1 RNA 1
RNA 2: GGGAAUGGAUCCACAUCUACGAAUUCGUACCAUAGAGAGGUUAUCCCCACCGAGAUCGGAAGAGCACACGU
B17: target 1 U8A,U11G (mixed)
RNA 1: B1 RNA 1
RNA 2: B4 RNA 2 with U41G, U44A, C47G, A48C
B18: target 1 C2U,U8A (mixed)
RNA 1: B1 RNA 1
RNA 2: B4 RNA 2 with U44A, C47G, A48C, C50U
B19: target 1 del7,del11 (mixed)
RNA 1: B1 RNA 1
RNA 2: B16 RNA 2 with U42A, A43U, U44C, C45G, C47U
B20: target 1 U10C,G12A (mixed)
RNA 1: B1 RNA 1
RNA 2: B4 RNA 2 with G40A, U42C, C47G, A48C
B21: target 1 insA 3' of 21,insU 3' of 15 (mixed)
RNA 1: B1 RNA 1
RNA 2: B1 RNA 2 with G31C, C32A, U33A, A34U, U35A, A36G, G37A, A38G, G39U
B22: target 1 insG 3' of 22,insG 3' of 3 (mixed)
RNA 1: B1 RNA 1
RNA 2: GGGAAUGGAUCCACAUCUACGAAUUCGUACGCAUAGAGAGGUUAUCCGCUGCACCGAGAUCGGAAGAGCACACGU
B23: target 1 C7U,A20U (mixed)
RNA 1: B1 RNA 1
RNA 2: B4 RNA 2 with A32U, C45U, C47G, A48C
B24: target 1 insU 3' of 14,insA 3' of 5 (mixed)
RNA 1: B1 RNA 1
RNA 2: B8 RNA 2 with G39U, C41G, C49A, U50C, C51U
B25: target 1 insG 3' of 18,insA 3' of 3 (mixed)
RNA 1: B1 RNA 1
RNA 2: B8 RNA 2 with A36G, G37A, A38G, G39A, C41G, C51A
B26: target 1 U3C,U8C (mixed)
RNA 1: B1 RNA 1
RNA 2: B4 RNA 2 with U44C, C47G, A48C, U49C
B27: target 1 C4A,A14C (mixed)
RNA 1: B1 RNA 1
RNA 2: B4 RNA 2 with A38C, C47G
B28: target 1 insU 3' of 21,insU 3' of 2 (mixed)
RNA 1: B1 RNA 1
RNA 2: B22 RNA 2 with G31C, C32U, G51C, C52U
B29: target 1 insC 3' of 13,insC 3' of 9 (mixed)
RNA 1: B1 RNA 1
RNA 2: B12 RNA 2 with U36A, A37G, G38A, A39G, G40C, U45C, A46U
B30: target 1 del2,del9 (mixed)
RNA 1: B1 RNA 1
RNA 2: B16 RNA 2 with A43U, U44C, C46G, C48U
B31: target 1 insC 3' of 22,insU 3' of 14 (mixed)
RNA 1: B1 RNA 1
RNA 2: B1 RNA 2 with G31C, U33A, A34U, U35A, A36G, G37A, A38G, G39A, A40U
B32: target 1 G15U,C21U (mixed)
RNA 1: B1 RNA 1
RNA 2: B4 RNA 2 with C31U, G37U, C47G, A48C
B33: target 1 C2A,G5A (mixed)
RNA 1: B1 RNA 1
RNA 2: B4 RNA 2 with C47A, A48C, C50A
B34: target 1 U3A,C6G (mixed)
RNA 1: B1 RNA 1
RNA 2: B4 RNA 2 with C46G, C47G, A48C, U49A

Target: T1, EsCas13d, nuclease-dead (Eubacterium siraeum, UniProt B0MS50, R295A;H300A;R849A;H854A)
T1 sequence: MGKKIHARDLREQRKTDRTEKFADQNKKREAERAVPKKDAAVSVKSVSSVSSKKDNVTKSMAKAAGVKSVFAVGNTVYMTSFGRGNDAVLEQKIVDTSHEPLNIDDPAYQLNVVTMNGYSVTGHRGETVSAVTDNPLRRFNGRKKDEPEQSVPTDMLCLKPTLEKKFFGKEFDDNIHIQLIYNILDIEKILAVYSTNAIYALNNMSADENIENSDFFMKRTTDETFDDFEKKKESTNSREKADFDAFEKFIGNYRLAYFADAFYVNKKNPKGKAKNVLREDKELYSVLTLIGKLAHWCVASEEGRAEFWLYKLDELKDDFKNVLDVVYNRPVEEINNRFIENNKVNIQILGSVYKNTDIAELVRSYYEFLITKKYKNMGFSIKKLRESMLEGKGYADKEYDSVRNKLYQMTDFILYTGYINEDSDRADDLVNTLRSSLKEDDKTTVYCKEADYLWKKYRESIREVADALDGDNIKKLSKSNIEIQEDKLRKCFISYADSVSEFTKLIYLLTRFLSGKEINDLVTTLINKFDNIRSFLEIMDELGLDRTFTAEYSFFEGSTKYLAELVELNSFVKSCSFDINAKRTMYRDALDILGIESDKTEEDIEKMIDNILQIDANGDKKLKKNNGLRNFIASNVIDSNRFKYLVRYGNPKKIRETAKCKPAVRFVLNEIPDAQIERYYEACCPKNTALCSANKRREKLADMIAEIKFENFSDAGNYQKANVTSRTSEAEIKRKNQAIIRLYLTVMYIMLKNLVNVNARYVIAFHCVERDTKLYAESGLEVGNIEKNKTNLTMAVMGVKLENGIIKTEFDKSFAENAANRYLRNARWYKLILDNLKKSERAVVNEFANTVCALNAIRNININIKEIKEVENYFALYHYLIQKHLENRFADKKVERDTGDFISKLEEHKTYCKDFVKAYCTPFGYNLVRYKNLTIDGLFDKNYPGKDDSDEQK
Experiment: crRNA (strand 1, pre-loaded); Mg2+; 40 mM Tris-HCl pH 7.5, 150 mM NaCl, 6 mM MgCl2, 1 mM DTT, 0.1% Tween-20, 0.2 mg/ml BSA; 25 C; 10 min per concentration, then washed
Conditions: tags: His6-TwinStrep-SUMO cleaved; N-terminal SNAP kept (SNAP-Surface 488); label: 3' end held by stalled T7 RNA polymerase

Binder | Kd [nM]
B1 | 30 ± 2.5
B2 | 16.9 ± 2.2
B3 | 62 ± 7
B4 | 20.9 ± 1.7
B5 | 20 ± 1
B6 | 10.6 ± 0.6
B7 | 14.4 ± 0.5
B8 | 12.3 ± 2.6
B9 | 8.1 ± 0.4
B10 | 86 ± 21
B11 | 12.1 ± 0.5
B12 | 24.6 ± 1.5
B13 | 4.3 ± 0.5
B14 | 38 ± 4
B15 | 10.8 ± 0.7
B16 | 15.8 ± 0.9
B17 | 12.7 ± 0.5

Binder | Kd [nM]
B18 | 21.2 ± 1
B19 | 15.4 ± 0.5
B20 | 13.8 ± 0.6
B21 | 31.6 ± 3.5
B22 | 21.5 ± 2.1
B23 | 41.2 ± 3.4
B24 | 28.7 ± 3
B25 | 49.3 ± 3.1
B26 | 13.4 ± 0.6
B27 | 11.9 ± 1.3
B28 | 38 ± 4
B29 | 17.9 ± 1.1
B30 | 63 ± 9
B31 | 40 ± 10
B32 | 6.4 ± 0.5
B33 | 31.6 ± 3.2
B34 | 5.27 ± 0.15
